# Test results taken from the DeepSol protein solubility set.
# Assay: soluble on expression in E. coli; label from the status in PepcDB or PDB records
row,Sequence,soluble on expression in E. coli
1,MKKIGFVGAGSMAEAMINGILQSGITKPEHIYITNRSNDERLIELKETYSVRPCRDKNEFFTHTDIIILAFKPKDAAESIDSIRPYIKDQLVISVLAGLTIETIQHYFGRKLAVIRVMPNTSAAIRKSATGFSVSTEASKNDIIAAKALLETIGDATLVEERHLDAVTAIAGSGPAYVYRYIEAMEKAAQKVGLDKETAKALILQTMAGATDMLLQSGKQPEKLRKEITSPGGTTEAGLRALQDSRFEEAIIHCIEETAKRSAEIKEQFAGAALERHSLEHHHHHH,soluble
2,AETIVMASTTSTEQSGLFGHLLPAFKKASGIDIKVVAQGTGQALDMARRGDADVLFVHDQVAEEKFVADGYAVKRYPVMYNDFILVGPAKDPAGVKGNDIVAALGKLAKDNADFISRGDKSGTHAAELRFWKQTGSDSKGSGYKECGCGMGPALNMGSSMNAYVLSDRGTWLSFKNPGELKILVEGDKRLFNQYGVMVVNPAKFPHVKAKAAQQFVDWVTSKAGQDAIASYQV,not soluble
3,MKKKTTLSEEDQALFRQLMAGTRKIKQDTIVHRPQRKKISEVPVKRLIQEQADASHYFSDEFQPLLNTEGPVKYVRPDVSHFEAKKLRRGDYSPELFLDLHGLTQLQAKQELGALIAACRREHVFCACVMHGHGKHILKQQTPLWLAQHPHVMAFHQAPKEYGGDAALLVLIEVEEWLPPELP,not soluble
4,MSTVQVPKLNTKDLLTLEELTQEEIISLIEFAIYLKKNKQEPLLQGKILGLIFDKHSTRTRVSFEAGMVQLGGHGMFLNGKEMQMGRGETVSDTAKVLSHYIDGIMIRTFSHADVEELAKESSIPVINGLTDDHHPCQALADLMTIYEETNTFKGIKLAYVGDGNNVCHSLLLASAKVGMHMTVATPVGYKPNEEIVKKALAIAKETGAEIEILHNPELAVNEADFIYTDVWMSMGQEGEEEKYTLFQPYQINKELVKHAKQTYHFLHCLPAHREEEVTGEIIDGPQSIVFEQAGNRLHAQKALLVSLFKNVEELS,not soluble
5,MGLKDWIEAPAAAVVPAKRSKLNWLRGAAARLTTPLLPDDYLHLANPLWSARELRGQIVEVRAETADSATIVIKPGWGFDFDYEPGQYIGIGLHIDGRWHWRSYSLTSPPNWDDKLISIAVKAMPEGFLSSHLVNGVPSGTIVRLATPTGNFALPDPPPERILFLTAGSGITPVMAMLRTMNRRGQLPDVFHVHSAPTDADVMFADELTQLHEEHDDFRCKIQLTRSQGKFALSSLDEVCPDWRERQTWACGPLPMLDEIETLWRDEGIENKLHLERFAVSRADTSGEGGTVTFAKADKTVSVDGATTLLEAGEQVGALMPFGCRMGICQTCVVPILAGHAIDLRSGKQHAEGDRVQTCISAAAGDCTLDA,not soluble
6,MNRMDNDLLAIQEARILIENAREAQKALATFSQEKLDRIVERMAGEVVKYARELAMMSHEETGFGKWQDKYIKNIFASDFLCKKIRKMKVVGIIAEDKENQTLDVGVPVGVIVALLPSTNPVSTAIYKTLIAIKSGNAIVFSPHPKAKKTTRRVLEILVRTAEASGLPCGAIGYQRTQALEGTLGLMNHKDTALIIVTGVPKLVKAAYAAGKPTIYGGPGNGPAFIERSADIKQAVADIITSRTFDHGIVSASEQSVVAEECIADEVRQELRGNGGYFLSEEEAEQLGKLFLRPDGSVNPDIVGKSAVELARKIGITVSENTKVLISEQKFVSPTNPYAKEKLCPVLAFYVEKDWFNACEKCIELLLNDGRGHTLVIHSRNEQVIREFALKKPVSRVLVNTPATLGGIGGTTNLFPALTLGCGAVGGGFTSDNVSPLNLINIRKVGYGVRKLEDITCGVQAESVGSSESAGLTRLTGLNGSLCPGPGYPKERTQDLNELLETLLEQLLPYRNA,not soluble
7,MIYAYIRVSTDKQTVENQRFEINRFAKQRDFQIDVWVEETVSGTRSAKDRKLGVLLKRIKKGDTLIVSEISRLGRRLMEVMSILNACMLKNVILLTVKEKYELGNNIQSQILAFAFSLSAQIERDLISQRTREGLARRIASGQKLGRPMGGHNSKYKLTGKEEKIKAMLEAGTSKAEMARKLKVSRNTLAAFLNRNRTGIPSN,not soluble
8,MDRKIREQIIAIYSNLQHKQDLTQFAHCLTTKADDNCEDFFNLGLQFQNNQLTALGFNGEGCIISTIASELTLSALEGKTIKEAIVLLEQFMEAVQTGSLSTPLPQALQLLWDFQIDQKRLNCLLLTPQNLLQWLKDFSH,soluble
9,MDELSDIGDWSLIQSFLAVAETGSLSAAARQLDRSQPTLGRHVQALEQALGLSLFDRHARGLKLSADGARILPLAQQAHRAMTAISVTAAGQSQSLAGTVRITASVFASHHILPPILADIRAAEPAIELELVPSDTTENLLFRAADIAVRMYRPRQVDIVARHIGDVPLCACAATSYLERKGRPTRAEDLLDFDLVGYDADPIIVKTMQALGWPVTRHSFAMRCDNQSAYWQLIRAGCGIGFGQRSIVAADPLVEVLPFELPVPPLEMWLAAPQAMRLTPRIRRVWDLLAAGLLAAPL,not soluble
10,SLEKKDTNSLKLLLIGNTGIGEYKSRAERKGLWYKLKRFLWTNEFDQTVSALAKWHAEEKADAVLGLGDFLGIPGPLSARDERFTKRWYDIFVKDAKLDIPWLMTLGEEEALVNPSASVRHHYTGEHPNWYMPNDAYTATFSFSTSMTMANGTIQHEAFNATVINVNTWNLFVGNPIANNMQSMMDRLMWLSDQLYTAVNQTTNWLIIMGHLPLVSTGPQGEQGRLQYVDDLYKNGQPRGPEAVLIQMLLSHYQVDLYVSAHDHFMEYVALEDLSKNTTTAFITSGAAVRLLDKDVGRGWIGRLRGALYPILCWSGRRILYAFHPG,soluble
11,MPLRPQRPCRAQGCRSLHRNANGYCDGHADLAAEQAKAWATRKGSGRGGRPWRRKRERILKRDQYLCRCDDCAQLGRIREAHEVDHIVALAHGGTDDDDNLRAINRDCHKAKTQRESKTIKKLEHHHHHH,not soluble
12,MGSDKIHHHHHHMWENFLFSVDRKETTMSMRLLARKMLFMRGASWQHPVIRLGLTALDPVDAIIRSATGLRSLPRYSTRVRSNGLSNQFGGGKFARQGRVILHMLQRHCALSPKSRVLEIGCGCGRTAVQLASFLEAEKYVGMDIEMVSLEACRDNPHLKRRGFKFDLIDIQNNEYNPKGRFRADEYRFSYLDGSMDCVFLISVFTHMLPEDVSNYVTEIGRMLDRGGMCLFSTFLIDHGRGGRGLNFAHDGNGFSYYDVRMPEIAVAYPQRFFEDSFGRAGLVLHEVKLGSWRDDGRGSYPEFGQDVLVFKKAA,not soluble
13,MGSDKIHHHHHHMVNEKRLLEEFLELVQIDSETKHEAEICKVLKRKFSDLGVDVKEDDTMDITGHGAGNLICTLKGTKQTDTIYFTSHMDTVVPGNGVKPVVENGYVKTDGTTILGADDKAGLAAMFEAIKVLKEENIEHGTIEFIITVGEESGLIGAKALDRPMITASYGYALDSDGKVGNIIVAAPTQAKVRAAIFGKTAHAGVEPEKGISAITIASKAISKMPLGRIDEETTANIGRFEGGTQTNIVCDEVHILAEARSLVPEKMEAQVQKMKAAFEEAAADMGGRAEVEIEVMYPGFKYQDGDQVVEIAKKAAAKIGRPSELQTSGGGSDANVIAGHGIPTVNLAVGYEQIHTKNEKMPIEELVKTAEMVVAIIEEAAK,not soluble
14,MVLSQRQRDELNRAIADYLRSNGYEEAYSVFKKEAELDMNEELDKKYAGLLEKKWTSVIRLQKKVMELESKLNEAKEEFTSGGPLGQKRDPKEWIPRPPEKYALSGHRSPVTRVIFHPVFSVMVSASEDATIKVWDYETGDFERTLKGHTDSVQDISFDHSGKLLASCSADMTIKLWDFQGFECIRTMHGHDHNVSSVSIMPNGDHIVSASRDKTIKMWEVQTGYCVKTFTGHREWVRMVRPNQDGTLIASCSNDQTVRVWVVATKECKAELREHRHVVECISWAPESSYSSISEATGSETKKSGKPGPFLLSGSRDKTIKMWDVSTGMCLMTLVGHDNWVRGVLFHSGGKFILSCADDKTLRVWDYKNKRCMKTLNAHEHFVTSLDFHKTAPYVVTGSVDQTVKVWECR,soluble
15,MNGNIIGEDEKGVALFVEDNSGNEHEIGVNSEGDIFHHADNVIPDNPSERSDKEDETFSQVRRFARYHVYREKGYDTIPTDENPDRIAAVLLAIIDLDDEEFENRFKPLYKQVMSHERPDVEPSLDLPDSVYHGGEPCYKQNIYLEESLEEMKSTVSEQLVESIGQEQITEVLQADSGDFFSRAASLFGGPNGNYGGLTIDGISGIDTVHLVDGKEQTIKSDDPFERGPDARLELYPSNFDFEAFRFYIGYNLICQIRDCFIGMGVEPPAQYRVLGPGKDKYTGKYHAFDFYPEYHNPGATIPGYIRPAPI,not soluble
16,MLTLYTSPSCTSCRKARAWLQEHEIPFKERNIFSEPLNIEELKAILIMTEDGTEEIISTRSKVFQKLNMDLDELPLQDLLELVQENPGLLRRPIMIDEKRLQVGFNEDEIRRFLPRDVRQLELRQAQLMAGL,soluble
17,MGSDKIHHHHHHMAYRNGTYVAFHANGTNRPGGNSDIDYYNLLKAWVGKDDDHFTMNNSHDKASAVRDSSKKETLRASLLERLRNSKNMVLIIGDTTLLDDDWVPFEISSAVDTYEIPIIAVYTQYSTPIRNPAALRSRWPDALATRIDSQKAKVIHIPFKKAALNDAISQFSHNNMPKGPLSFYSDEAYESFGIDG,not soluble
18,MPALPPVYTPSGAPSSVHAPPAVPPVPVPTQPLRSEYQTSNDACIKRLEELNIAPAAKLYPTPTEPGKCGVEAEIQTNVFGIEMHQDSLFYQYSVNITTELKNGKEVTFTKKGKDDFVVTERHDKCCAILFRALGDYEEFFKTSDSCLIYDGQSILFSNVDLFQGFREGAVKTKYMQLDGGEMDHKDLKSLPCIKLEVFPTKNPAVKFTREAVARRATDSNLDSVSLAYQQILELALTQPCLRNTARYVVFDHGKMFFIDPLGEGFEKCDVVDVGDGKQVVPGLKKTINFIEGPYGRGRSNPSVVIDGMKVAFHKNQPILDKLKEITTQPVEHGLKGLEKDRCAAVIKGLDCYSTYGGRERHHKIEGIHHEGARNARFELNDGGSCTVAQYFEDVYNITLRYPDTNLIVSKERGNINFYPMELLKISSHQRVQIPQLTSAQSQKTTKESAVLPDVRQRLILTGKNAAQISSDNEVLGKMGVSVCEDPLMVKGRSIPAVKLANAEIGANPINVKDNKWRANRFTRPATAPNVWAMYVVGTASTRITLDTLKKFADEFAAMCKSKGVNMPAPADISLIHMDAIESRLYDATKANCTFVFIITDDSITTLHQRYKMIEKDTKMIVQDMKLSKALSVINAGKRLTLENVINKTNVKLGGSNYVFVDAKKQLDSHLIIGVGISAPPAGTKYAMENKGVLNPNVIGYAYNAQHNQEFSGDFVLNSASQDTLAPIEDIVMHSLNEYQKFHDGGLPRRVIVYRTGTSEGNHGSIMAYEIPLARAAMRDFSPDIQLVYIVVSKDHSFRFFKPDLASLASRPQATSSTASRHSAMPAAPKAWDLNIAPGILVDSIVTNPACKQFFLNSHITLQGTAKTPLYTVLADDAKVSMTALEDITYKLCHLHQIVGLPTSLPTPLYVANEYAKRGRNLWNEAVALNNVPTVSGPEADRLKELTKSICYKASGDLTGRRVNA,not soluble
19,MTDSDGKIVWETGYQVWGNTIQEKDHGGVEQNLRYQGQYLDRETGLHYNLHRYYDPDVGRFMVTDPIGLRGGLNLYSYAPNPLKYADPLGLTPCAVSNQKANRLLDSSETKVTVRSRSDAEQLFMDRYLGHNYKNMTGESGPSTKNLMEYLTENKTKAGSYHWDDIKDPSVTKPSYRVSGHGPGNPDGDLPHLQVHQHGGSVRHIFFPWETLEHHHHHH,not soluble
20,MSLRDGKHIRTKLTPQKDRGESSYRIGLYIRDSAAGIGTMTFVHPDSMKYGALGHVISDNDTKKPIQVEDGQIMRSTVTSIERGSHGNPGEKLARFSPDREVIGNITINSPFGIFGKLNTNMTNGVMDKAMPIALSHQVKEGPAKILTVIDQDKVEAFDIEVVSTVPQKFPATKGMVIKVTDKRLLAKTGGIVQGMSGSPIVQNGKVIGAVTHVFVNDPTSGYGVHIEWMLHEAGINIYDQERKASEGHHHHHH,soluble
